*1 amine or outer side, *2 acyl side, *3 side chain or, on linkers, in order; H or OH if unused. Bridges are numbered along the chain shown (N, C = ends). [ ]: non-standard residue; d: D form. IPegDab = L-2-amino-4{2-[2-(2-methoxy-ethoxy)-ethoxy]-acetylamino}-butyric acid, COCCOCCOCC(=O)NCC[C@H](N[*:1])C(=O)[*:2]; N(2-Aminoethyl)Gly = O=C(CN(CCN[*:3])[*:1])[*:2]; 2Nal = N[C@@H](Cc1ccc2ccccc2c1)C(=O)O; Cit = NC(=O)NCCC[C@H](N)C(=O)O; Dab = NCC[C@H](N)C(=O)O
B1: Example 145 (peptide)
peptide: cyclo(YRTCRG[dP]RRYCYQK[dP]P)
modifications: disulfide 4-11
SMILES: C[C@@H](O)[C@@H]1NC(=O)[C@H](CCCNC(=N)N)NC(=O)[C@H](Cc2ccc(O)cc2)NC(=O)[C@@H]2CCCN2C(=O)[C@H]2CCCN2C(=O)[C@H](CCCCN)NC(=O)[C@H](CCC(N)=O)NC(=O)[C@H](Cc2ccc(O)cc2)NC(=O)[C@@H]2CSSC[C@H](NC1=O)C(=O)N[C@@H](CCCNC(=N)N)C(=O)NCC(=O)N1CCC[C@@H]1C(=O)N[C@@H](CCCNC(=N)N)C(=O)N[C@@H](CCCNC(=N)N)C(=O)N[C@@H](Cc1ccc(O)cc1)C(=O)N2
B2: Example 148 (peptide)
peptide: cyclo(YRYCRG[dP]RRYCYQK[dP]P)
modifications: disulfide 4-11
SMILES: N=C(N)NCCC[C@@H]1NC(=O)[C@@H]2CSSC[C@H](NC(=O)[C@H](Cc3ccc(O)cc3)NC(=O)[C@H](CCCNC(=N)N)NC(=O)[C@H](CCCNC(=N)N)NC(=O)[C@H]3CCCN3C(=O)CNC1=O)C(=O)N[C@@H](Cc1ccc(O)cc1)C(=O)N[C@@H](CCC(N)=O)C(=O)N[C@@H](CCCCN)C(=O)N1CCC[C@@H]1C(=O)N1CCC[C@H]1C(=O)N[C@@H](Cc1ccc(O)cc1)C(=O)N[C@@H](CCCNC(=N)N)C(=O)N[C@@H](Cc1ccc(O)cc1)C(=O)N2
B3: Example 144 (peptide)
peptide: cyclo(LR[Cit]CRG[dP]RR[2Nal]CYQK[dP]P)
modifications: disulfide 4-11
SMILES: CC(C)C[C@@H]1NC(=O)[C@@H]2CCCN2C(=O)[C@H]2CCCN2C(=O)[C@H](CCCCN)NC(=O)[C@H](CCC(N)=O)NC(=O)[C@H](Cc2ccc(O)cc2)NC(=O)[C@@H]2CSSC[C@H](NC(=O)[C@H](CCCNC(N)=O)NC(=O)[C@H](CCCNC(=N)N)NC1=O)C(=O)N[C@@H](CCCNC(=N)N)C(=O)NCC(=O)N1CCC[C@@H]1C(=O)N[C@@H](CCCNC(=N)N)C(=O)N[C@@H](CCCNC(=N)N)C(=O)N[C@@H](Cc1ccc3ccccc3c1)C(=O)N2
B4: Example 136 (peptide)
peptide: cyclo(YR[Cit]CRG[dP][Cit]RWCY[Cit]K[dP]P)
modifications: disulfide 4-11
SMILES: N=C(N)NCCC[C@@H]1NC(=O)[C@@H]2CSSC[C@H](NC(=O)[C@H](Cc3c[nH]c4ccccc34)NC(=O)[C@H](CCCNC(=N)N)NC(=O)[C@H](CCCNC(N)=O)NC(=O)[C@H]3CCCN3C(=O)CNC1=O)C(=O)N[C@@H](Cc1ccc(O)cc1)C(=O)N[C@@H](CCCNC(N)=O)C(=O)N[C@@H](CCCCN)C(=O)N1CCC[C@@H]1C(=O)N1CCC[C@H]1C(=O)N[C@@H](Cc1ccc(O)cc1)C(=O)N[C@@H](CCCNC(=N)N)C(=O)N[C@@H](CCCNC(N)=O)C(=O)N2
B5: Example 147 (peptide)
peptide: cyclo(YRICRG[dP]RRYCYQK[dP]P)
modifications: disulfide 4-11
SMILES: CC[C@H](C)[C@@H]1NC(=O)[C@H](CCCNC(=N)N)NC(=O)[C@H](Cc2ccc(O)cc2)NC(=O)[C@@H]2CCCN2C(=O)[C@H]2CCCN2C(=O)[C@H](CCCCN)NC(=O)[C@H](CCC(N)=O)NC(=O)[C@H](Cc2ccc(O)cc2)NC(=O)[C@@H]2CSSC[C@H](NC1=O)C(=O)N[C@@H](CCCNC(=N)N)C(=O)NCC(=O)N1CCC[C@@H]1C(=O)N[C@@H](CCCNC(=N)N)C(=O)N[C@@H](CCCNC(=N)N)C(=O)N[C@@H](Cc1ccc(O)cc1)C(=O)N2
B6: Example 146 (peptide)
peptide: cyclo(YRTCRG[dP]RRYCY[Cit]K[dP]P)
modifications: disulfide 4-11
SMILES: C[C@@H](O)[C@@H]1NC(=O)[C@H](CCCNC(=N)N)NC(=O)[C@H](Cc2ccc(O)cc2)NC(=O)[C@@H]2CCCN2C(=O)[C@H]2CCCN2C(=O)[C@H](CCCCN)NC(=O)[C@H](CCCNC(N)=O)NC(=O)[C@H](Cc2ccc(O)cc2)NC(=O)[C@@H]2CSSC[C@H](NC1=O)C(=O)N[C@@H](CCCNC(=N)N)C(=O)NCC(=O)N1CCC[C@@H]1C(=O)N[C@@H](CCCNC(=N)N)C(=O)N[C@@H](CCCNC(=N)N)C(=O)N[C@@H](Cc1ccc(O)cc1)C(=O)N2
B7: Example 142 (peptide)
peptide: cyclo(YR[Cit]CRG[dP][IPegDab]RWCY[Cit]K[dP]P)
modifications: disulfide 4-11
SMILES: COCCOCCOCC(=O)NCC[C@@H]1NC(=O)[C@H]2CCCN2C(=O)CNC(=O)[C@H](CCCNC(=N)N)NC(=O)[C@@H]2CSSC[C@H](NC(=O)[C@H](Cc3c[nH]c4ccccc34)NC(=O)[C@H](CCCNC(=N)N)NC1=O)C(=O)N[C@@H](Cc1ccc(O)cc1)C(=O)N[C@@H](CCCNC(N)=O)C(=O)N[C@@H](CCCCN)C(=O)N1CCC[C@@H]1C(=O)N1CCC[C@H]1C(=O)N[C@@H](Cc1ccc(O)cc1)C(=O)N[C@@H](CCCNC(=N)N)C(=O)N[C@@H](CCCNC(N)=O)C(=O)N2
B8: Example 24 (peptide)
peptide: cyclo(YR[Cit]FRFPRR[2Nal]VY[Cit]K[dP]P)
SMILES: CC(C)[C@@H]1NC(=O)[C@H](Cc2ccc3ccccc3c2)NC(=O)[C@H](CCCNC(=N)N)NC(=O)[C@H](CCCNC(=N)N)NC(=O)[C@@H]2CCCN2C(=O)[C@H](Cc2ccccc2)NC(=O)[C@H](CCCNC(=N)N)NC(=O)[C@H](Cc2ccccc2)NC(=O)[C@H](CCCNC(N)=O)NC(=O)[C@H](CCCNC(=N)N)NC(=O)[C@H](Cc2ccc(O)cc2)NC(=O)[C@@H]2CCCN2C(=O)[C@H]2CCCN2C(=O)[C@H](CCCCN)NC(=O)[C@H](CCCNC(N)=O)NC(=O)[C@H](Cc2ccc(O)cc2)NC1=O
B9: Example 1 (peptide)
peptide: cyclo(YR[Cit]VR[dR]R[2Nal]FY[Cit]K[dP]P)
SMILES: CC(C)[C@@H]1NC(=O)[C@H](CCCNC(N)=O)NC(=O)[C@H](CCCNC(=N)N)NC(=O)[C@H](Cc2ccc(O)cc2)NC(=O)[C@@H]2CCCN2C(=O)[C@H]2CCCN2C(=O)[C@H](CCCCN)NC(=O)[C@H](CCCNC(N)=O)NC(=O)[C@H](Cc2ccc(O)cc2)NC(=O)[C@H](Cc2ccccc2)NC(=O)[C@H](Cc2ccc3ccccc3c2)NC(=O)[C@H](CCCNC(=N)N)NC(=O)[C@@H](CCCNC(=N)N)NC(=O)[C@H](CCCNC(=N)N)NC1=O
B10: Example 138 (peptide)
peptide: cyclo(YR[Cit]C[N(2-Aminoethyl)Gly]G[dP]RR[2Nal]CY[Cit]K[dP]P)
modifications: disulfide 4-11
SMILES: N=C(N)NCCC[C@@H]1NC(=O)[C@H](CCCNC(=N)N)NC(=O)[C@H]2CCCN2C(=O)CNC(=O)CN(CCN)C(=O)[C@@H]2CSSC[C@H](NC(=O)[C@H](Cc3ccc4ccccc4c3)NC1=O)C(=O)N[C@@H](Cc1ccc(O)cc1)C(=O)N[C@@H](CCCNC(N)=O)C(=O)N[C@@H](CCCCN)C(=O)N1CCC[C@@H]1C(=O)N1CCC[C@H]1C(=O)N[C@@H](Cc1ccc(O)cc1)C(=O)N[C@@H](CCCNC(=N)N)C(=O)N[C@@H](CCCNC(N)=O)C(=O)N2
B11: Example 143 (peptide)
peptide: cyclo(YR[Cit]CRA[dP]RRWCY[Cit]K[dP]P)
modifications: disulfide 4-11
SMILES: C[C@@H]1NC(=O)[C@H](CCCNC(=N)N)NC(=O)[C@@H]2CSSC[C@H](NC(=O)[C@H](Cc3c[nH]c4ccccc34)NC(=O)[C@H](CCCNC(=N)N)NC(=O)[C@H](CCCNC(=N)N)NC(=O)[C@H]3CCCN3C1=O)C(=O)N[C@@H](Cc1ccc(O)cc1)C(=O)N[C@@H](CCCNC(N)=O)C(=O)N[C@@H](CCCCN)C(=O)N1CCC[C@@H]1C(=O)N1CCC[C@H]1C(=O)N[C@@H](Cc1ccc(O)cc1)C(=O)N[C@@H](CCCNC(=N)N)C(=O)N[C@@H](CCCNC(N)=O)C(=O)N2
B12: Example 137 (peptide)
peptide: cyclo(YR[Cit]CRG[dP]HRWCY[Cit]K[dP]P)
modifications: disulfide 4-11
SMILES: N=C(N)NCCC[C@@H]1NC(=O)[C@@H]2CSSC[C@H](NC(=O)[C@H](Cc3c[nH]c4ccccc34)NC(=O)[C@H](CCCNC(=N)N)NC(=O)[C@H](Cc3c[nH]cn3)NC(=O)[C@H]3CCCN3C(=O)CNC1=O)C(=O)N[C@@H](Cc1ccc(O)cc1)C(=O)N[C@@H](CCCNC(N)=O)C(=O)N[C@@H](CCCCN)C(=O)N1CCC[C@@H]1C(=O)N1CCC[C@H]1C(=O)N[C@@H](Cc1ccc(O)cc1)C(=O)N[C@@H](CCCNC(=N)N)C(=O)N[C@@H](CCCNC(N)=O)C(=O)N2
B13: Example 25 (peptide)
peptide: cyclo(YR[Cit]VR[Cit][dP]RR[2Nal]VY[Cit]K[dP]P)
SMILES: CC(C)[C@@H]1NC(=O)[C@H](Cc2ccc3ccccc3c2)NC(=O)[C@H](CCCNC(=N)N)NC(=O)[C@H](CCCNC(=N)N)NC(=O)[C@H]2CCCN2C(=O)[C@H](CCCNC(N)=O)NC(=O)[C@H](CCCNC(=N)N)NC(=O)[C@H](C(C)C)NC(=O)[C@H](CCCNC(N)=O)NC(=O)[C@H](CCCNC(=N)N)NC(=O)[C@H](Cc2ccc(O)cc2)NC(=O)[C@@H]2CCCN2C(=O)[C@H]2CCCN2C(=O)[C@H](CCCCN)NC(=O)[C@H](CCCNC(N)=O)NC(=O)[C@H](Cc2ccc(O)cc2)NC1=O
B14: Example 135 (peptide)
peptide: cyclo(YR[Cit]CRG[dP][Dab]R[2Nal]CY[Cit]K[dP]P)
modifications: disulfide 4-11
SMILES: N=C(N)NCCC[C@@H]1NC(=O)[C@@H]2CSSC[C@H](NC(=O)[C@H](Cc3ccc4ccccc4c3)NC(=O)[C@H](CCCNC(=N)N)NC(=O)[C@H](CCN)NC(=O)[C@H]3CCCN3C(=O)CNC1=O)C(=O)N[C@@H](Cc1ccc(O)cc1)C(=O)N[C@@H](CCCNC(N)=O)C(=O)N[C@@H](CCCCN)C(=O)N1CCC[C@@H]1C(=O)N1CCC[C@H]1C(=O)N[C@@H](Cc1ccc(O)cc1)C(=O)N[C@@H](CCCNC(=N)N)C(=O)N[C@@H](CCCNC(N)=O)C(=O)N2

target: human CXCR4 (human, UniProt P61073 1-352); assay: cell-based or functional assay
Sequence (P61073 whole entry): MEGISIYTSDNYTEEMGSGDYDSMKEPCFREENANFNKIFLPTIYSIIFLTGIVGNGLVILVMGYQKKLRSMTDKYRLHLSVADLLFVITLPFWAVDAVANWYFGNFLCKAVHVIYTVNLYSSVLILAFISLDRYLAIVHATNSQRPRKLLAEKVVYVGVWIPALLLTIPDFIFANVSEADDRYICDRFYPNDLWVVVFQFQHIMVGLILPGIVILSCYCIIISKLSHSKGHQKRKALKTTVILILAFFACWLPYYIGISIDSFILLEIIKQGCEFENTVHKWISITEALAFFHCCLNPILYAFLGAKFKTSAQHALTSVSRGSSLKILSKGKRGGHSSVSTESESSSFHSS

IC50 (nM) Ca2+ assay (method 2) [nM] | IC50 (nM) Ca2+ assay (method 1) [nM] | Binder
0.38 | – | B1
0.65 | – | B2
0.18 | – | B3
4.1 | – | B4
0.17 | – | B5
0.24 | – | B6
96.9 | – | B7
– | 850 | B8
– | 2280 | B9
63 | – | B10
0.9 | – | B11
1.28 | – | B12
– | 1000 | B13
4.7 | – | B14

Source: patent US20150087577A1 (POLYPHOR, published 2015)
